Reference: article PMC3229523, “Identification of Lactoferricin B Intracellular Targets Using an Escherichia coli Proteome Chip” (PLoS ONE, 2011)
Ends that are not written are not given here. * marks the point of attachment. Biotin = O=C1N[C@H]2[C@H](CS[C@H]2CCCCC(=O)*)N1

Experiments:
Assay in all cases: peptide or protein array; E. coli proteome chip: purified His-tagged proteins printed in duplicate on Fullmoon slides, blocked with 1% BSA; 10 nM N-terminal biotinylated LfcinB with 1% BSA, room temperature, 1 h; detected with DyLight 649-labeled streptavidin, ratio to DyLight 549-labeled anti-His antibody; ProCAT normalisation, local cut-off; triplicate chips
Conditions in all cases: both partners purified
SoxS = molecular target: T1, SoxS (E. coli K-12, UniProt P0A9E2 1-107)
T1 construct: SoxS, E. coli K-12
T1 sequence (looked up): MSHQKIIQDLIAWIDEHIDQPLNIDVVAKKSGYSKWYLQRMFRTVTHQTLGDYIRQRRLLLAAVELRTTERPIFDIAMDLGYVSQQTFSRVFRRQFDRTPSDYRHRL

YggF = molecular target: T2, YggF (E. coli K-12, UniProt P21437 1-321)
T2 construct: YggF, E. coli K-12
T2 sequence (looked up): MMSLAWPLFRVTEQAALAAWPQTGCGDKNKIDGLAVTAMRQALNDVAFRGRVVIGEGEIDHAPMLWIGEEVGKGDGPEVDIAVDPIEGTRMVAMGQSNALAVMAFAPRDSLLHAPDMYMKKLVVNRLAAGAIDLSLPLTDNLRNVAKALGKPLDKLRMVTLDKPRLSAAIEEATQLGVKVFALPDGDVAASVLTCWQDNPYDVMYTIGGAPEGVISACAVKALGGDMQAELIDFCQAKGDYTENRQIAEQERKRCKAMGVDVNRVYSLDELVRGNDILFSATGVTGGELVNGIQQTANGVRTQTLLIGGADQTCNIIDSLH

YdiT = molecular target: T3, YdiT (E. coli K-12, UniProt P77714 1-97)
T3 construct: YdiT, E. coli K-12
T3 sequence (looked up): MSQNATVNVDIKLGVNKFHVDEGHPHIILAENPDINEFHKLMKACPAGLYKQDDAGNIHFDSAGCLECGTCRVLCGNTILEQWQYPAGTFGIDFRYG

YdaW = molecular target: T4, YdaW (E. coli K-12, UniProt P76066 1-186)
T4 construct: YdaW, E. coli K-12
T4 sequence (looked up): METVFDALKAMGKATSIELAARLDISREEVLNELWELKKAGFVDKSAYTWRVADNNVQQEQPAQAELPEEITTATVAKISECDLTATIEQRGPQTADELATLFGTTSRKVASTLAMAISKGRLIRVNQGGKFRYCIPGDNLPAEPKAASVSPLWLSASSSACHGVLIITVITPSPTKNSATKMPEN

YhiW = molecular target: T5, YhiW (E. coli K-12, UniProt P63201 1-242)
T5 construct: YhiW, E. coli K-12
T5 sequence (looked up): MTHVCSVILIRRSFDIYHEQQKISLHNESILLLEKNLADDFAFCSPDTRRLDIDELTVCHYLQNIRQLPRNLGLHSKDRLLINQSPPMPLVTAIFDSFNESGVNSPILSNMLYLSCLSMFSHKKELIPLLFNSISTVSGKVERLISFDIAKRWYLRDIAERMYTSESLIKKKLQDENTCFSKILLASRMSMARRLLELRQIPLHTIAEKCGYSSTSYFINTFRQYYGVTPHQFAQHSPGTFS

YhgA = molecular target: T6, YhgA (E. coli K-12, UniProt P31667 1-292)
T6 construct: YhgA, E. coli K-12
T6 sequence (looked up): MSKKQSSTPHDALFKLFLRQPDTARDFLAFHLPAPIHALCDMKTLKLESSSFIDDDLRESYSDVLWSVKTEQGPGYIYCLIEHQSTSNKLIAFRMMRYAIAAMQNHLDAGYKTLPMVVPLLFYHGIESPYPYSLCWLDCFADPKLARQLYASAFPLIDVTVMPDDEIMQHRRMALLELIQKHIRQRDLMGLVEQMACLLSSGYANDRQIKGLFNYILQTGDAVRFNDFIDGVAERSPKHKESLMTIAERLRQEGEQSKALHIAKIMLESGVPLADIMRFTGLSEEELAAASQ

Hha = molecular target: T7, Hha (E. coli K-12, UniProt P0ACE3 1-72)
T7 construct: Hha, E. coli K-12
T7 sequence (looked up): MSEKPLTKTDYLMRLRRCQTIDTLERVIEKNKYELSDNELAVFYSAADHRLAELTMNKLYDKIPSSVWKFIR

Measured: binding result

B1: N-terminal biotinylated Lactoferricin B (peptide, UniProt P24627 36-60, looked up)
peptide: Biotin-FKCRRWQWRMKKLGAPSITCVRRAF
modifications: ends and bridges not checked
notes: lactoferricin B (LfcinB), cationic antimicrobial peptide of 25 amino acids; also called biotinylated LfcinB; biotin-labeled LfcinB; source: bought: Kelowna Inc
binds: all assays above
